Residue numbers refer to the chain shown, from its start. Blank lines part the entries; values can stand above or below the binder they belong to.
Experiments:
[1] = molecular target: T1, GGA2 (from HeLa cell lysate) (human (HeLa cells), UniProt Q9UJY4 1-613); experiment: GST pull-down from HeLa cell extract, immunoblot
T1 sequence (looked up): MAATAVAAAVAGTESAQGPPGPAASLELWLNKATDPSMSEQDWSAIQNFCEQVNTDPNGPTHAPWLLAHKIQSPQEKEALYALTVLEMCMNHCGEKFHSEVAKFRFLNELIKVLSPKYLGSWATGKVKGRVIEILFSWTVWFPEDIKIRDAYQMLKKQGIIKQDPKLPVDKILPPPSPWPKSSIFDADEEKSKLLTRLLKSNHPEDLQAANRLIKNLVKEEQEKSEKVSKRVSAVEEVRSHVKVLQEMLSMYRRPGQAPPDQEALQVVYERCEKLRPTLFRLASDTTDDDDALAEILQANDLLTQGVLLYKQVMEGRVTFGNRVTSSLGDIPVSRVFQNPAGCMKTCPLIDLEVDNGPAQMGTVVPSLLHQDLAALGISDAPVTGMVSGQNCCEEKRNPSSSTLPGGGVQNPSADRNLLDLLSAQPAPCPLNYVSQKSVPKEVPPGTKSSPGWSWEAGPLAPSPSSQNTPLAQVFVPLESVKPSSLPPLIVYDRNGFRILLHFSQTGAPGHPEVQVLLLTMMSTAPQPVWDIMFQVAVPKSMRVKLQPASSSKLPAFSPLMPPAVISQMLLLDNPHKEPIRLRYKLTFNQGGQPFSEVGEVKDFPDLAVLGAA

[2] = molecular target: T2, GGA3 (from HeLa cell lysate) (human (HeLa cells), UniProt Q9NZ52 1-723); experiment: GST pull-down from HeLa cell extract, immunoblot
T2 sequence (looked up): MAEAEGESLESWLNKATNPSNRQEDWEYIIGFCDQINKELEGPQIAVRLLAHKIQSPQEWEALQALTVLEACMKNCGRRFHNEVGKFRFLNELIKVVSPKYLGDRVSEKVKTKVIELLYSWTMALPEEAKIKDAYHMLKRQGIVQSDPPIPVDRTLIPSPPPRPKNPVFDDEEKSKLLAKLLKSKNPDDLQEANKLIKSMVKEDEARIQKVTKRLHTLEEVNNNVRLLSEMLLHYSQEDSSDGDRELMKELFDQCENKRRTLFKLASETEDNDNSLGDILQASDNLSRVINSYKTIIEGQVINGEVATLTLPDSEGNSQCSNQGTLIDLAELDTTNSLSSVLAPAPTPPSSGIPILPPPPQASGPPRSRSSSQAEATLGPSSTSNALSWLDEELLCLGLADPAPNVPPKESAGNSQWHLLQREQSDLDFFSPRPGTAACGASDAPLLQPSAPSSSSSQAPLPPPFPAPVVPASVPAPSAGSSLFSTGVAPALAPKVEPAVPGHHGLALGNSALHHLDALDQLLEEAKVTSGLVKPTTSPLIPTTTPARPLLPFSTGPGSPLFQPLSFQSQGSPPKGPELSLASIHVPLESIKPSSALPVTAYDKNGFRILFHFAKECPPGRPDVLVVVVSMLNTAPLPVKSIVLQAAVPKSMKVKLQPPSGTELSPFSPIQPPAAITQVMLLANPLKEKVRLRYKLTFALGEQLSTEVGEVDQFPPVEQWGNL

binding result [1]: no binding | binding result [2]: no binding
B1: GST fusion protein of the human CIC-7 N-terminus, mutant combining LL23/24AA and LL68/69AA (2xLLAA) (other)
chain: MANVSKKVSWSGRDRDDEEAAPAARRTARPGGGTPLLNGAGPGAARQSPRSALFRVGHMSSVELDDEAADPDMDPPHPFPKEIPHNEKLLSLKYESLDYDNSENQLFLEEERRINHTAFRTVEIKR
notes: not shown: N-terminal GST tag of pGEX-5X-1 and the vector linker

binding result [1]: no binding | binding result [2]: no binding
B2: GST fusion protein of the human CIC-7 N-terminus, mutant LL68/69AA (other)
chain: B1 chain with A23L, A24L
notes: as for B1

Source: patent EP2420830B1 (Forschungsverbund Berlin e.V., dated 2016)
